Drawing on paper PMC11655674, this text covers binding for 9 sequences.

In this data set the target is T1, 6xHis-CerM (Cereibacter sphaeroides WS8N) (UniProt Q3J1N9).
T1 sequence: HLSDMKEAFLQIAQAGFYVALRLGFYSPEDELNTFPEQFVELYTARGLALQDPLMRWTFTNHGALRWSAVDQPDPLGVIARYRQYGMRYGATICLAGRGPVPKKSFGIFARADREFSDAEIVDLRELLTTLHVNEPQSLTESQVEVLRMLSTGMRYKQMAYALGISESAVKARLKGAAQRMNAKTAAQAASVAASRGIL
Nature of the data set: EMSA. The settings on record: 10 mM Tris pH 7.5, 1 mM EDTA, 0.1 M KCl, 0.1 mM DTT, 5% glycerol, 0.10 mg/mL BSA, 20 min room temperature; 50 ng DNA, 50-200 ng CerM; 4% native gel in TAE pH 7. On the technique in general: Mobility shift assays separate free from complexed probe on a gel.
Turning to “CAAAAAGACAGGTTTGTTTCAAGACAAGTTTTTCTGGATGGAATTGGACGTCGGGCGGGGTTTTGGCACACAATATGCTTGTTATCCGGGCAGGGACAGCTGGAAGATTTACGGAGACATTTCATGAAACATCCCGTCGACGCCCAC (double strand) [14710 fragment F (147 bp)]”, the binding result is reported as “no binding”.
On to “CCCGAATATTCGCGACTTGCAAAGTTTCGGCGGCGAATTCGCTGCAAATTGCATTGCAGAATGCAAAAGACCTCAGAGGCGAGTGACGTGTCTCCCGTGCTCCCGAGGGATGATCCACAGCGGCGGACGCCGAACGAACCCAGCTTGTATGAATGGACATATC (double strand) [14710 fragment G (163 bp)]”, for which the binding entry is on record as “no binding”.
Regarding “GCGAATTCCGAGAGGGTTCCACGCTTCATCTTCTCATTTCGCTGGGCAGCCGATTGCGGCGCGAGGAGACCGTGCTGCCGTCCCATTCTCAAGTTGCGCAAAAGGTAAGGCGCTGGAAGGCCCGTCTTTTGAGCATCTGGTCAAAAAAATAAGTTATTACATGGGCTTGATGGGTGATCGGCTCAATCCGCGGACAAACCCTGAGGTTGAGGTGAGAGAGACCCGACTCGCGCCCGTTACCGAAAATGTGCAGATGGGAATTCGC (double strand) [15394 regulatory region (249 bp)]”, the binding result is “binds more weakly”.
Under “GTGGGCGTCGACGGGATGTTTCATGAAATGTCTCCGTAAATCTTCCAGCTGTCCCTGCCCGGATAACAAGCATATTGTGTGCCAAAACCCCGCCCGACGTCCAATTCCATCCAGAAAAACTTGTCTTGA (double strand) [14710 fragment C (129 bp)]” stands “no binding”; under “CCCGAATATTCGCGACTTGCAAAGTTTCGGCGGCGAATTCGCTGCAAATTGCATTGCAGAATGCAAAAGACCTCAGAGGCGAGTGACGTGTCTCCCGTGCTCCCGAGGGATGATCCACAGCGGCGGACGCCGAACGAACCCAGCTTGTATGAATGGACATATCCAAAAAGACAGGTTTGTTT (double strand) [14710 fragment I (182 bp)]”, “binds”; under “CCCGAATATTCGCGACTTGCAAAGTTTCGGCGGCGAATTCGCTGCAAATTGCATTGCAGAATGCAAAAGACCTCAGAGGCGAGTGACGTGTCTCCCGTGCTCCCGAGGGATGATCCACAGCGGCGGACGCCGAACGAACCCAGCTTGTATGAATGGACATATCCAAAAAGACAGGTTTGTTTCAAGACAAG (double strand) [14710 fragment D (191 bp)]”, “binds”.
In the case of “GCGAATTCAAGGTCACGATGATCCAGAAATATCGGCAACTTTAGATTGTATTCAGCTTCGCCTATGCGAGAGTAACTCATGATTAACCATTGGGCATCATTGTAGTTAATACCTAGGGTGGCGATGCGGAGCGCGAGTGATGAGAATACTGCTGGTGGAGGATGATCCGACCACGTCCCGCAGCATCGAATTGATGCTGACTCATGCGAACCTGAACGTCTATTGCACCGATCTCGGCGAGGACGGGATCGATCTGGCCAAGCTCTACGATTACGATCTCATCCTGCTGAGCTCGC (double strand) [ctrA control region (281 bp)]”, the binding result is “no binding”.
For “CAGCTTGTATGAATGGACATATCCAAAAAGACAGGTTTGTTTCAAGACAAGTTTTTCTGGATGGAATTGGACGTCGGGCGGGGTTTTGGCACACAATATGCTTGTTATCCGGGCAGGGACAGCTGGAAGATTTACGGAGACATTTCATGAAACATCCCGTCGACGCCCAC (double strand) [14710 fragment B (170 bp)]” the value was “binds”; for “GACATATCCAAAAAGACAGGTTTGTTTCAAGACAAGTTTTTCTGGATGGAATTGGACGTCGGGCGGGGTTTTGGCACACAATATGCTTGTTATCCGGGCAGGGACAGCTGGAAGATTTACGGAGACATTTCATGAAACATCCCGTCGACGCCCAC (double strand) [14710 fragment H (155 bp)]”, “binds”.
